In the supplement of paper PMC10724198:
± gives the standard deviation of the averaged measurements.

What was measured:
Saccharomyces cerevisiae [1] = experiment: protein stability index of tFT-peptide fusion (C-terminal peptide) (PSI (0-1 scale)); higher = more stable (slower turnover)
Protocol: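 MPS profiling in S. cerevisiae of the tFT-X12 degron library: putative degron peptides plus stable controls, 12 aa, fused to the C-terminus of a sfGFP-mCherry timer. Cells are FACS-sorted into 8 mCherry/sfGFP bins and deep-sequenced. PSI runs from 0 (unstable) to 1 (stable). Backgrounds are wild type, das1Δ and doa10Δ at 30 °C, and wild type, das1Δ, cdc34-1 and cdc53-1 at 37 °C; 2-3 technical replicates each.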

Saccharomyces cerevisiae [2] = experiment: as above; settings: genetic background: wild type; temperature: 30 C
[3] = genetic background: cdc34-1, temperature: 37 C
[4] = genetic background: cdc53-1, temperature: 37 C
[5] = genetic background: das1 deletion, temperature: 30 C
[6] = genetic background: das1 deletion, temperature: 37 C
[7] = genetic background: doa10 deletion, temperature: 30 C
[8] = genetic background: wild type, temperature: 30 C
[9] = genetic background: wild type, temperature: 37 C
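Further: PSI is a weighted mean of sequencing reads over stability bins, variants kept only with over 10 reads, mCherry proximal and sfGFP distal, peptide attached via GGGS linker.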

| Sequence | protein stability index (Saccharomyces cerevisiae [1]; [3]) | protein stability index (Saccharomyces cerevisiae [1]; [4]) | protein stability index (Saccharomyces cerevisiae [1]; [5]) | protein stability index (Saccharomyces cerevisiae [1]; [6]) | protein stability index (Saccharomyces cerevisiae [1]; [7]) | protein stability index (Saccharomyces cerevisiae [1]; [8]) | protein stability index (Saccharomyces cerevisiae [1]; [9]) | protein stability index (Saccharomyces cerevisiae [2]) |
| --- | --- | --- | --- | --- | --- | --- | --- | --- |
| SGFWVSVDVFFV | 0.0673 ± 0.026 | 0.171 ± 0.022 | 0.155 ± 0.03 | 0.32 ± 0.015 | 0.122 ± 0.012 | 0.136 ± 0.026 | 0.29 ± 0.0036 | 0.2434 ± 0.0016 |
| AFRLRHEIISLM | 0.552 ± 0.081 | 0.726 ± 0.024 | 0.63 ± 0.056 | 0.744 ± 0.037 | 0.136 ± 0.0049 | 0.139 ± 0.037 | 0.344 ± 0.041 | 0.282 ± 0.013 |
| LVVFGLVLSLLL | 0.449 ± 0.013 | 0.477 ± 0.006 | 0.376 ± 0.022 | 0.5066 ± 0.0043 | 0.356 ± 0.008 | 0.374 ± 0.022 | 0.495 ± 0.03 | 0.469 ± 0.025 |
| VFVGGVSVLILF | 0.531 ± 0.051 | 0.638 ± 0.0089 | 0.438 ± 0.026 | 0.602 ± 0.0081 | 0.413 ± 0.0093 | 0.434 ± 0.033 | 0.584 ± 0.0086 | 0.516 ± 0.044 |
| FGSFVVWGVWWG | 0.458 ± 0.0071 | 0.4975 ± 0.0029 | 0.352 ± 0.036 | 0.563 ± 0.038 | 0.352 ± 0.015 | 0.356 ± 0.032 | 0.5069 ± 0.0015 | 0.508 ± 0.018 |
| ASIEVGNVIKQM | 0.672 ± 0.051 | 0.7189 ± 0.0025 | 0.627 ± 0.036 | 0.7202 ± 0.0061 | 0.375 ± 0.0075 | 0.43 ± 0.019 | 0.632 ± 0.027 | 0.518 ± 0.037 |
| PSLPPLPPFAAL | 0.73 ± 0.0098 | 0.7412 ± 0.0013 | 0.676 ± 0.051 | 0.75 ± 0.021 | 0.663 ± 0.0099 | 0.661 ± 0.02 | 0.72 ± 0.024 | 0.749 ± 0.052 |
| KFKRLTKFYARQ | 0.555 ± 0.031 | 0.684 ± 0.029 | 0.676 ± 0.032 | 0.618 ± 0.011 | 0.108 ± 0.0012 | 0.132 ± 0.027 | 0.334 ± 0.017 | 0.311 ± 0.0089 |
| ALFLYNCVVVTD | 0.0493 ± 0.0086 | 0.137 ± 0.018 | 0.146 ± 0.04 | 0.25 ± 0.015 | 0.132 ± 0.011 | 0.143 ± 0.045 | 0.188 ± 0.056 | 0.136 ± 0.0097 |
| VVLAFFFWFFVG | 0.359 ± 0.04 | 0.518 ± 0.028 | 0.383 ± 0.034 | 0.507 ± 0.011 | 0.25 ± 0.0047 | 0.265 ± 0.038 | 0.362 ± 0.01 | 0.365 ± 0.016 |
| PETSRFALNEWG | 0.709 ± 0.04 | 0.748 ± 0.018 | 0.665 ± 0.0095 | 0.755 ± 0.0086 | 0.674 ± 0.043 | 0.68 ± 0.02 | 0.717 ± 0.011 | 0.727 ± 0.059 |
| TPYIFVLACLHV | 0.395 ± 0.0014 | 0.476 ± 0.0062 | 0.326 ± 0.013 | 0.5039 ± 0.0042 | 0.274 ± 0.013 | 0.309 ± 0.021 | 0.461 ± 0.0069 | 0.372 ± 0.0091 |
| GELVLVMYGIWV | 0.392 ± 0.013 | 0.47 ± 0.0055 | 0.29 ± 0.028 | 0.502 ± 0.013 | 0.238 ± 0.0055 | 0.277 ± 0.033 | 0.458 ± 0.0063 | 0.351 ± 0.058 |
| SRKRIVALMLSG | 0.628 ± 0.012 | 0.678 ± 0.061 | 0.615 ± 0.029 | 0.686 ± 0.032 | 0.153 ± 0.013 | 0.18 ± 0.02 | 0.273 ± 0.0082 | 0.292 ± 0.013 |
| LLGHLFTMLVIY | 0.211 ± 0.18 | 0.157 ± 0.023 | 0.286 ± 0.053 | 0.366 ± 0.0077 | 0.397 ± 0.0055 | 0.234 ± 0.019 | 0.311 ± 0.012 | 0.308 ± 0.014 |
| SRVGAGVVRGVG | 0.481 ± 0.031 | 0.534 ± 0.015 | 0.498 ± 0.007 | 0.5403 ± 0.0051 | 0.512 ± 0.011 | 0.493 ± 0.012 | 0.5391 ± 0.0031 | 0.488 ± 0.038 |
| LESYGLRDSTSG | 0.641 ± 0.05 | 0.651 ± 0.032 | 0.638 ± 0.099 | 0.741 ± 0.042 | 0.65 ± 0.0099 | 0.681 ± 0.044 | 0.69 ± 0.018 | 0.621 ± 0.27 |
| WGRFFWGCGVWV | 0.631 ± 0.07 | 0.7128 ± 0.0035 | 0.6 ± 0.016 | 0.725 ± 0.0095 | 0.438 ± 0.016 | 0.463 ± 0.032 | 0.644 ± 0.031 | 0.55 ± 0.074 |
| YFNGLLPLVLVF | 0.0299 ± 0.0068 | 0.0434 ± 0.004 | 0.074 ± 0.01 | 0.0623 ± 0.018 | 0.0659 ± 0.018 | 0.0601 ± 0.0082 | 0.0517 ± 0.028 | 0.0927 ± 0.049 |
| FSAVVCPTVFLC | 0.51 ± 0.051 | 0.725 ± 0.019 | 0.603 ± 0.015 | 0.746 ± 0.019 | 0.0928 ± 0.02 | 0.0973 ± 0.022 | 0.0951 ± 0.0051 | 0.185 ± 0.063 |

| Sequence | protein stability index (Saccharomyces cerevisiae [1]; [3]) | protein stability index (Saccharomyces cerevisiae [1]; [4]) | protein stability index (Saccharomyces cerevisiae [1]; [5]) | protein stability index (Saccharomyces cerevisiae [1]; [6]) | protein stability index (Saccharomyces cerevisiae [1]; [7]) | protein stability index (Saccharomyces cerevisiae [1]; [8]) | protein stability index (Saccharomyces cerevisiae [1]; [9]) | protein stability index (Saccharomyces cerevisiae [2]) |
| --- | --- | --- | --- | --- | --- | --- | --- | --- |
| CGPLLVTLVLSM | 0.445 ± 0.045 | 0.423 ± 0.02 | 0.305 ± 0.032 | 0.5011 ± 0.0028 | 0.304 ± 0.01 | 0.306 ± 0.018 | 0.476 ± 0.012 | 0.404 ± 0.0049 |
| LLPLLFFFLCLP | 0.592 ± 0.058 | 0.584 ± 0.0088 | 0.495 ± 0.035 | 0.5602 ± 0.0049 | 0.462 ± 0.006 | 0.452 ± 0.02 | 0.529 ± 0.014 | 0.4989 ± 0.0038 |
| QKGLFYCVILYC | 0.169 ± 0.019 | 0.253 ± 0.034 | 0.214 ± 0.027 | 0.3829 ± 0.0019 | 0.148 ± 0.017 | 0.156 ± 0.032 | 0.272 ± 0.0046 | 0.316 ± 0.017 |
| YLVFSLCSYRFL | 0.596 ± 0.012 | 0.677 ± 0.022 | 0.511 ± 0.019 | 0.653 ± 0.011 | 0.36 ± 0.011 | 0.374 ± 0.029 | 0.549 ± 0.016 | 0.457 ± 0.033 |
| RWRLWVGWWVVG | 0.4532 ± 0.0039 | 0.587 ± 0.0088 | 0.456 ± 0.022 | 0.601 ± 0.013 | 0.1043 ± 0.00095 | 0.118 ± 0.0076 | 0.142 ± 0.017 | 0.12 ± 0.0055 |
| RDGAHFLLILVC | 0.0425 ± 0.0098 | 0.0913 ± 0.022 | 0.176 ± 0.033 | 0.2536 ± 0.0015 | 0.088 ± 0.025 | 0.125 ± 0.025 | 0.154 ± 0.019 | 0.203 ± 0.059 |
| IVCYFFAFSFMW | 0.288 ± 0.014 | 0.399 ± 0.058 | 0.293 ± 0.028 | 0.462 ± 0.0081 | 0.2859 ± 0.0019 | 0.288 ± 0.025 | 0.425 ± 0.024 | 0.362 ± 0.0046 |
| WIGCTVKIASLY | 0.619 ± 0.015 | 0.67 ± 0.018 | 0.558 ± 0.03 | 0.693 ± 0.012 | 0.219 ± 0.021 | 0.261 ± 0.019 | 0.49113 ± 0.00019 | 0.437 ± 0.036 |
| LWAVGVATDWGG | 0.706 ± 0.018 | 0.7571 ± 0.0035 | 0.684 ± 0.029 | 0.768 ± 0.015 | 0.694 ± 0.021 | 0.689 ± 0.011 | 0.7513 ± 0.0075 | 0.734 ± 0.022 |
| LLVVGPVRLVVH | 0.214 ± 0.019 | 0.259 ± 0.0027 | 0.201 ± 0.034 | 0.346 ± 0.017 | 0.168 ± 0.0078 | 0.18 ± 0.026 | 0.321 ± 0.012 | 0.262 ± 0.023 |
| LLRLPLLALLFV | 0.236 ± 0.028 | 0.227 ± 0.0089 | 0.233 ± 0.026 | 0.356 ± 0.0077 | 0.337 ± 0.02 | 0.222 ± 0.033 | 0.324 ± 0.016 | 0.111 ± 0.0047 |
| DSPRGRCVRLLV | 0.66041 ± 1.4e-06 | 0.74745 ± 0.00025 | 0.646 ± 0.013 | 0.741 ± 0.017 | 0.253 ± 0.0077 | 0.308 ± 0.0036 | 0.599 ± 0.067 | 0.398 ± 0.03 |
| LRMSLLVFLLFA | 0.312 ± 0.03 | 0.407 ± 0.033 | 0.261 ± 0.033 | 0.4419 ± 0.0016 | 0.249 ± 0.021 | 0.231 ± 0.025 | 0.399 ± 0.0072 | 0.314 ± 0.054 |
| GCILSLCYAVST | 0.555 ± 0.051 | 0.569 ± 0.024 | 0.332 ± 0.026 | 0.534 ± 0.014 | 0.296 ± 0.0074 | 0.318 ± 0.018 | 0.523 ± 0.013 | 0.389 ± 0.016 |
| LWVSHFVILIVS | 0.122 ± 0.032 | 0.105 ± 0.0073 | 0.135 ± 0.03 | 0.236 ± 0.0048 | 0.0934 ± 0.036 | 0.108 ± 0.026 | 0.16 ± 0.0095 | 0.213 ± 0.03 |
| WGRGYRWRIWDV | 0.708 ± 0.068 | 0.772 ± 0.018 | 0.657 ± 0.015 | 0.7901 ± 0.0042 | 0.396 ± 0.01 | 0.433 ± 0.0092 | 0.656 ± 0.034 | 0.546 ± 0.093 |
| RIWRLLIIIIKK | 0.387 ± 0.015 | 0.428 ± 0.11 | 0.236 ± 0.085 | 0.565 ± 0.056 | 0.232 ± 0.023 | 0.259 ± 0.016 | 0.456 ± 0.012 | 0.325 ± 0.12 |
| WGEAGRPAGRGA | 0.703 ± 0.032 | 0.758 ± 0.026 | 0.631 ± 0.007 | 0.745 ± 0.018 | 0.644 ± 0.017 | 0.6506 ± 0.004 | 0.73024 ± 1.3e-05 | 0.688 ± 0.039 |
| RPCLSALRFRFF | 0.68 ± 0.037 | 0.764 ± 0.029 | 0.655 ± 0.042 | 0.727 ± 0.064 | 0.141 ± 0.023 | 0.162 ± 0.026 | 0.3204 ± 0.00076 | 0.206 ± 0.015 |
